Assay results reported in paper PMC7764402.

Molecular target: Vorin-cat (C-terminal catalytic mART domain of Vorin), wild type (Erwinia amylovora ATCC BAA-2158)
Assay: SEC; IMAC-purified Vorin-cat/VorinI (5 mg) on HiLoad 16/60 Superdex-200; fractions analysed by SDS-PAGE with Coomassie stain; dialysed against 50 mM Tris pH 7.5, 250 mM NaCl, 10% glycerol before the run

VorinI (Vorin Immunity protein) (natural protein)
stoichiometry N (VorinI per Vorin-cat): 1
